In patent US20200002425A1:
pEC50, pKd: −log10 of the molar value.

Assays:
[1] = target: human PD-L1 expressed on cells (H441 lung tumor cells; MDA-MB-231 cells; artificial antigen presenting cells) (human) (UniProt Q9NZQ7); assay: flow cytometry on PD-L1+ H441 cells, APC anti-human IgG Fc detection; the table has no unit, pM is from the graph's axis Concentration(pM)
[2] = target: human PD-L1 expressed on cells (H441 lung tumor cells; MDA-MB-231 cells; artificial antigen presenting cells) (human) (UniProt Q9NZQ7); assay: cell-based or functional assay
[3] = target: PD-L1 (soluble analyte in the SPR assay) (UniProt Q9NZQ7); assay: SPR, binder immobilized by Fc capture, PD-L1 as analyte, OneStep kinetic analysis on Pioneer FE (Fortebio)
TGFβ1 (human) = TGFβ1 (human) (UniProt P01137); assay: SPR, binder immobilized by Fc capture, TGFβ1 as analyte, OneStep kinetic analysis on Pioneer FE (Fortebio)
TGFβ2 = TGFβ2 (UniProt P61812); assay: SPR, binder immobilized by Fc capture, TGFβ2 as analyte, OneStep kinetic analysis on Pioneer FE (Fortebio)
TGFβ2, sequence (P61812 303-414 limits assumed): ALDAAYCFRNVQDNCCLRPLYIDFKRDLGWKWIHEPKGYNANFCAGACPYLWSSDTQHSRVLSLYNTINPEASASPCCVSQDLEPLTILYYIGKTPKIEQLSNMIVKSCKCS

human PD-L1 expressed on cells (H441 lung tumor cells; MDA-MB-231 cells; artificial antigen presenting cells) (human), sequence (Q9NZQ7 19-290): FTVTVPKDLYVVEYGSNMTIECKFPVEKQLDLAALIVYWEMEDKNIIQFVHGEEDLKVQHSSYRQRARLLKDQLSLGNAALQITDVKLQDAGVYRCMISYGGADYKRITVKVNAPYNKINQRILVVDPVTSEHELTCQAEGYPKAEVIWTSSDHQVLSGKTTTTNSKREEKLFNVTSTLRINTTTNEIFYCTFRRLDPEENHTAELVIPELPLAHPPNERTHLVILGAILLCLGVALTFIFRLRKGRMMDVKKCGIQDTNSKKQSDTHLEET
PD-L1 (soluble analyte in the SPR assay), sequence (Q9NZQ7 19-238 limits assumed): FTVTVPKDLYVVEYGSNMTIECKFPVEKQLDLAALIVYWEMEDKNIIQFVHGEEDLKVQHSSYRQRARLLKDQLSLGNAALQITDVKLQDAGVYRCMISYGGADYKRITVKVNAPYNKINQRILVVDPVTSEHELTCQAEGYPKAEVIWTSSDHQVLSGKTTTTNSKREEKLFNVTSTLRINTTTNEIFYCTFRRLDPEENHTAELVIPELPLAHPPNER
TGFβ1 (human), sequence (P01137 279-390 limits assumed): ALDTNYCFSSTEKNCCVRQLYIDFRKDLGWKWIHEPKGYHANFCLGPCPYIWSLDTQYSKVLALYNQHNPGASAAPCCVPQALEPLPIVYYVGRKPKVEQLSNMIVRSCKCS

pEC50 [1]: 9.74
pKd [3]: 8.12
pKd (TGFβ1 (human)): 9.62
pKd (TGFβ2): 9.28
Substance: αPDL1/TXM/TGFβRII (N-810A); IL-15N72D:αPDL1/IL-15RαSu/Fc/TGFβRII fusion protein complex (from UniProt P40933 49-162) (Fc fusion)
maximal killing, ADCC against PD-L1-positive MDA-MB-231 breast tumor cells [2]: 30%
